Substrate: N[C@@H](Cc1ccccc1)C(=O)O
Assay: LC-MS decarboxylation assay, Michaelis-Menten fit
Format: biochemical, Enterococcus faecium
Details: 100 μM PLP, 200 mM sodium acetate pH 5.5, 100 nM enzyme, 37 °C

B1: Efm_TyrDC (Enterococcus faecium) (protein)
chain: MKDMDIKAVFIGDKAENGPVYKMLLNKMVDEHLGWRENYIPSDMPAISEGDKLTPDYLATRDHMIEVLDEVSQRLRAGSIPWHSAGRYWGQMNAETLMPALLAYNYAMLWNPNNVALESSMATSQMEAEVGQDFASLFNMADGWGHIAADGSIANLEGLWYARCIKSIPLAVKEVLPEKVKNMSEWALLNLSVEEILEMTESFTDEEMDEVKAASSRSGKNIQKLGKWLVPQTKHYSWMKALDICGVGLDQMVAIPVQEDYRMDINALEKTIRELADQKIPILGVVAVVGTTEEGQVDSVDKIIQLREKLKDEGIYFYLHVDAAYGGYARSLFLNEAGEFVPYASLAEFFEEHHVFHHYVTIDKEVYEGFRAISEADSVTIDPHKMGYVPYAAGGIVIKHKNMRNIISYFAPYVFEKSVKAPDMLGAYILEGSKAGATAAAVWTAHRVLPLNVTGYGQLIGASIEAAQRFREFLEQLHFTVKGKTIEVYPLNHPDFNMVNWVFKVQDCTDLNAINELNEKMFDRSSYMDGDVYGERFITSHTTFTQEDYGDSPIRFIERMGLSKEEWQKEQQITLLRAAIMTPYLNDDRIFNFYTKEIAKAMEKKLNEIIK
  Km: 8.5 mM
